{"source": "paper PMC5426795", "about": "“Controlling transferrin receptor trafficking with GPI-valence in bloodstream stage African trypanosomes” (PLoS Pathogens, 2017)", "molecules": {"B1": {"name": "variant surface glycoprotein VSG221 (MITat1.2) (natural protein)", "chain": "AAEKGFKQAFWQPLCQVSEELDDQPKGALFTLQAAASKIQKMRDAALRASIYAEINHGTNRAKAAVIVANHYAMKADSGLEALKQTLSSQEVTATATASYLKGRIDEYLNLLLQTKESGTSGCMMDTSGTNTVTKAGGTIGGVPCKLQLSPIQPKRPAATYLGKAGYVGLTRQADAANNFHDNDAECRLASGHNTNGLGKSGQLSAAVTMAAGYVTVANSQTAVTVQALDALQEASGAAHQPWIDAWKAKKALTGAETAEFRNETAGIAGKTGVTKLVEEALLKKKDSEASEIQTELKKYFSGHENEQWTAIEKLISEQPVAQNLVGDNQPTKLGELEGNAKLTTILAYYRMETAGKFEVLTQKHKPAESQQQAAETEGSCNKKDQNECKSPCKWHNDAENKKCTLDKEEAKKVADETAKDGKTGNTNTTGSS", "modifications": "GPI anchor, C-terminal", "notes": "variant surface glycoprotein VSG221 of MITat1.2, T. brucei brucei Lister 427; Internal control of the BN-PAGE; also called dVSG; mVSG; source: endogenous, bloodstream form T. brucei brucei Lister 427 (MITat1.2), dodecylmaltoside extract"}}, "assay_in_all_cases": "native gel or EMSA; BN-PAGE (4-16% gradient) of 1% dodecylmaltoside extracts of cell lines cultured 24 hr with tetracycline, without or with 4 M urea; immunoblot with anti-TfR or anti-VSG221", "key": {"[1]": {"biological_target": "ESAG6, GPI-anchored subunit of the transferrin receptor (TfR) (T. brucei brucei (Lister 427))"}, "[2]": {"biological_target": "ESAG7, subunit of the transferrin receptor (TfR) without GPI anchor (T. brucei brucei (Lister 427))"}, "[3]": {"biological_target": "the molecule itself"}}}
{"molecule": "ESAG6, GPI-anchored subunit of the transferrin receptor (TfR) (natural protein)", "values": [{"measurement": "stoichiometry N", "setting": "[1]", "result": 2}]}
{"molecule": "ESAG7, subunit of the transferrin receptor (TfR) without GPI anchor (natural protein)", "values": [{"measurement": "stoichiometry N", "setting": "[2]", "result": 2}]}
{"molecule": "B1", "values": [{"measurement": "stoichiometry N", "setting": "[3]", "result": 2}]}
